Measurements: patent US20240398964A1, “PEPTIDE FOR PENETRATING BLOOD-BRAIN BARRIER AND USE THEREOF” (NIBEC CO., LTD., priority 2021, published 2024)

How the values were obtained:
[1] = Brain delivery of peptide-antibody complex in normal animals (IVIS organ fluorescence, Optix MX3 3D brain image); type: in vivo, hairless mouse (SKH-1); conditions: Cy5.5 labeled, intravenous 4 mg/kg; for fluorescence in the brain (IVIS): FIG. 4(a); for extent of penetration into the brain (three-dimensional image): Optix MX3, FIG. 4(b)
Method: Cy5.5 labeled SEQ ID NO: 17 peptide for penetrating the blood-brain barrier, Cy5.5 labeled SEQ ID NO: 59 antibody, and the complex of Cy5.5-labeled SEQ ID NO: 17 peptide for penetrating the blood-brain barrier and SEQ ID NO: 59 antibody were injected intravenously at 4 mg/kg each to hairless mouse (SKH-1, female, 6 weeks old, OrientBio), and fluorescence in each organ (brain, liver, lung, spleen, kidney, heart) was measured at excitation: 685 nm and emission: 706 nm using IVIS (Perkin Elmer). In addition, three-dimensional images of the brain alone were measured using Optix MX3 (ART Advanced Research Technologies Inc.).

[2] = Concentration in blood and brain tissue of peptide-antibody complex in normal animals (IVIS); type: in vivo, hairless mouse (SKH-1)
Method: The control cell permeability peptide (TAT) and antibody of SEQ ID NO: 59 were prepared in the same manner as the expression method in Example 2 and labeled with cy5.5. The complex of the peptide for penetrating the blood-brain barrier of SEQ ID NO: 41 in which CGGGG was introduced in N term and the antibody of SEQ ID NO: 59 prepared in Example 2 was labeled labeled with Cy5.5. The antibody of SEQ ID NO: 59 was labeled with Cy5.5 and injected intravenously into hairless mouse (SKH-1, female, 6 weeks old, OrientBio) at 10 mg/kg each. Concentrations in brain and blood were measured at excitation: 685 nm and emission: 706 nm using IVIS (Perkin Elmer) until day 24, and the results are shown in FIG. 5.

U87MG-Luc 2 glioblastoma = assay: Brain tumor animal model, bioluminescence and distribution at tumor site; type: in vivo, mouse; conditions: for bioluminescence of U87MG-Luc brain tumor cells: 1 mg/kg intravenous every 3 days, 4 doses, observed 16 days
Method: Using a brain tumor animal model, the ability of the complex of the peptide for penetrating the blood-brain barrier and antibody to penetrate the brain, inhibit brain tumors, and be distributed in the brain parenchyma was measured. Specifically, U87MG-Luc 2 (ATCC, HTB-14-LUC2™) cells, a luciferase-expressing U87MG glioblastoma, were cultured in DMEM medium supplemented with 10% FBS and 1% antibiotics. Nude 5- to 7-week-old mouse (Orient Bio) was anesthetized with isoflurane and immobilized using ear bars inside a stereotaxic instrument. After incising the scalp at the surgical site, a hole was made using a sterile drill 2 mm to the right to and 2 mm under the bregma. Then, 1.0×10^5/10 μL U87MG-Luc-2 cells were injected through the above hole with a 26G Hamilton syringe (1 μl/min), and after injection, the hole was closed with bone wax and sutured to close the scalp. The proliferation of transplanted glioblastoma was obtained by injecting D-luciferin potassium (15 mg/mL dissolved in PBS, sigma), a substrate of luciferase, at 150 mg/kg, to a mouse, and sacrificing it after 10 min, and measuring the bioluminescence using IVIS (Perkin Elmer), and the results are shown in FIG. 6.
Starting 4 days after glioblastoma transplantation, 1 mg/kg of the complex of CGGGG-SEQ ID NO: 41 peptide for penetrating the blood-brain barrier and SEQ ID NO: 59 antibody and 1 mg/kg SEQ ID NO: 59 antibody were injected intravenously. The administration interval between doses was every 3 days for a total of 4 doses for 16 days. […] FIG. 6 (a) is the photo of an IVIS observation of bioluminescence of U87MG-Luc cells on day 16. […] After 16 days of bioluminescence observation, the bioluminescence continued to increase in the glioblastoma transplanted and untreated group.
The complex of a peptide for penetrating the blood-brain barrier of CGGGG-SEQ ID NO: 41 labeled with cy5.5 and a SEQ ID NO: 59 antibody was administered to the same animal model 8 hours before sacrifice, and the brain was harvested. After frozen sectioning, the distribution of fluorescence was observed by confocal microscopy.

[3] = Cy5.5 labeled, intravenous 10 mg/kg

| Molecule | fluorescence in the brain (IVIS) [1] | extent of penetration into the brain (three-dimensional image) [1] | fluorescence in brain tissue, % of the initial dose ([2]; 4 days after intravenous injection, 10 mg/kg) | blood levels compared with the antibody linked to TAT [2, 3] | bioluminescence of U87MG-Luc brain tumor cells (U87MG-Luc 2 glioblastoma) | distribution of fluorescence in the brain (confocal, frozen sections) (U87MG-Luc 2 glioblastoma; cy5.5 labeled, administered 8 hours before sacrifice, FIG. 6(c)) | fluorescence in brain tissue [2, 3] | time to clearance from the blood ([2]; Cy5.5 labeled, intravenous 10 mg/kg, measured until day 24) [days] |
| --- | --- | --- | --- | --- | --- | --- | --- | --- |
| VSRRRRRRRGGRRRRR-VPALR [SEQ ID NO: 17] | fluorescence could be observed in the brain | the extent of penetration into the brain was large |  |  |  |  |  |  |
| complex of Cy5.5-labeled SEQ ID NO: 17 peptide for penetrating the blood-brain barrier and SEQ ID NO: 59 antibody: complex of SEQ ID NO: 17 blood-brain barrier penetrating peptide and SEQ ID NO: 59 … (conjugate, Cy5.5 label; conjugated complex) chain 1: VSRRRRRRGGRRRRVPALR chain 2: MAWVWTLLFLMAAAQSIQAEWIKQRPGQGLEWIGVIHPGNGGTNYNENFKGKATLTADKSSSTAYMQLSSLTSDDSAVYFCASGNDGSYWGQGTTVTVSSGGGGSGKGGSGGGGSGGGGSDIELTQSPSSLTVTAGEKVTMSCKSSQSLLNSGDQKIYLTWYQQKPGQPPKLLIYWASTRESGVPDRFTGSVSGTDFTLTISSVQAEDLAVYYCQNDYNYPYTFGGGTKCLEIKRGSENLYFQGGSGKPIPNPLLGLDSTGGSGGSHHHHHH | fluorescence could be observed in the brain | the extent of penetration into the brain was large |  |  |  |  |  |  |
| complex of CGGGG-SEQ ID NO: 41 peptide for penetrating the blood-brain barrier and SEQ ID NO: 59 antibody: SEQ ID NO: 41 peptide with N-terminal linker CGGGG chemically conjugated to antibody of SEQ … (conjugate, N-terminal CGGGG linker; chemical conjugation) chain 1: VSRRRRRRGGRRRRHAIYPRH chain 2: MAWVWTLLFLMAAAQSIQAEWIKQRPGQGLEWIGVIHPGNGGTNYNENFKGKATLTADKSSSTAYMQLSSLTSDDSAVYFCASGNDGSYWGQGTTVTVSSGGGGSGKGGSGGGGSGGGGSDIELTQSPSSLTVTAGEKVTMSCKSSQSLLNSGDQKIYLTWYQQKPGQPPKLLIYWASTRESGVPDRFTGSVSGTDFTLTISSVQAEDLAVYYCQNDYNYPYTFGGGTKCLEIKRGSENLYFQGGSGKPIPNPLLGLDSTGGSGGSHHHHHH |  |  | approximately 7% | higher | the bioluminescence caused by brain tumor cells decreased | distributed in the area where the brain tumor occurred |  |  |
| SEQ ID NO: 59 antibody: antibody represented by amino acid sequence of SEQ ID NO: 59, has therapeutic efficacy in glioblastoma (protein) MAWVWTLLFLMAAAQSIQAEWIKQRPGQGLEWIGVIHPGNGGTNYNENFKGKATLTADKSSSTAYMQLSSLTSDDSAVYFCASGNDGSYWGQGTTVTVSSGGGGSGKGGSGGGGSGGGGSDIELTQSPSSLTVTAGEKVTMSCKSSQSLLNSGDQKIYLTWYQQKPGQPPKLLIYWASTRESGVPDRFTGSVSGTDFTLTISSVQAEDLAVYYCQNDYNYPYTFGGGTKCLEIKRGSENLYFQGGSGKPIPNPLLGLDSTGGSGGSHHHHHH | fluorescence was not observed in the brain | observed to a lesser extent inside the brain |  |  | many brain tumor cells survived |  | no fluorescence was measured in brain tissue | ≤ 12 |
